Data: patent US9034341B2, “Control of RAGE fusion protein glycosylation and RAGE fusion protein compositions” (TransTech Pharma, LLC, priority 2009, dated 2015)

Experiments:
[1] = system: human Aβ peptides (Aβ1-40, Aβ1-28); assay: Aβ peptide binding ELISA; conditions: for Relative binding compared to control: binding to Abeta relative to S1 control
Method: (§1) S100b binding ELISA: An ELISA assay plate was coated with 100 μL/well of 20 μg/mL S100b protein (Cat. No. 559290, Calbiochem, Gibbstown, N.J.) in coating buffer (Tris buffered saline [TBS], pH8.0, with 5 mM CaCl2) overnight at 4° C. The plate was then washed three times with blocking buffer (TBS pH8.0, with 5 mM CaCl2, 0.05% Tween20, and 1% bovine serum albumin [BSA]), and blocked with the blocking buffer for 1-1.5 hr. sRAGE-Ig fusion samples were prepared in a separate dilution plate, the highest concentration was 10 μg/mL in blocking buffer, with 1:4 serial dilution in blocking buffer down to 2.4 ng/mL. After blocking, the assay plate was washed with the blocking buffer and 100 μL of the samples were transferred from the dilution plate to the assay plate. The assay plate was incubated at room temperature for 2.5 hr. The assay plate was then washed three times with the blocking buffer, with 1 min soaking time between the washes. The horseradish peroxidase conjugated goat anti-human IgG (Cat. No. A2290, Sigma, St. Louis, Mo.) was added to the plate with 100 μL/well at 1:2500 dilution in the blocking buffer. The plate was incubated for 1 hr at room temperature. The assay plate was then washed three times with the blocking buffer again, and 100 μL 3,3′,5,5′-tetramethylbenzidine (TMB; Cat. No. 34022, Pierce, Rockford, Ill.) was added to each well and the plate was incubated for 8 minutes at room temperature. 100 μL of 1M H2SO4 was then added to each well, the plate was shaken and read at 450 nm on a microplate reader.
Assay for Aβ peptide binding activities: Briefly, two human Aβ peptides were tested: Aβ1-40 (Catalogue# A-1153-2, Rpeptide), and Aβ1-28 (Catalogue#24232, AnaSpec). The plates were coated by 20 μg/mL peptide in 1% NH4OH overnight at 4° C. The plate was then washed with blocking buffer (TBS pH8.0, 0.05% Tween20, and 1% BSA) and blocked for 1 hr at room temperature. All the other steps were performed essentially as described previously herein for S100b binding assay, supra.

S100b = target: T1, S100b (Bos taurus, UniProt P02638); assay: S100b binding ELISA; conditions: for Relative binding compared to control: binding to S100b relative to S1 control (untreated sRAGE-Ig)
T1 construct: purchased Calbiochem 559290
T1 sequence (P02638 1-92): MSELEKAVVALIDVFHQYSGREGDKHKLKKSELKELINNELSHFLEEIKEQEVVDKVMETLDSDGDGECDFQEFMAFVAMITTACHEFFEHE
Method: Peak fraction collection for S100b binding assay: sRAGE-Ig fusion protein samples were concentrated to 4.0 mg/mL using a 10K Amicon Ultra filtration column (Millipore, Bedford, Mass.) and then separated under the reversed-phase conditions for glycan site occupancy as described above. Three fractions representing the site occupancy variants of sRAGE-Ig were collected as triply glycosylated (fraction one, F1), doubly glycosylated (fraction two, F2), and aglycosylated (fraction three, F3). The collected samples were concentrated and exchanged into a stabilizing buffer. Protein concentration of the fraction samples was determined by 280 nm absorbance with a DU 650 spectrophotometer (Beckman Coulter, Fullerton, Calif.) before subjecting the protein to the S100b ELISA binding assay.
as §1

[2] = versus unfractionated untreated S1

Chain of human Aβ peptides (Aβ1-40, Aβ1-28) (P05067 672-699 limits assumed): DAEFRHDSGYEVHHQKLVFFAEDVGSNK

B1: S1F2: sRAGE-Ig fraction from untreated cells, 2-glycan occupancy (protein)
chain: QNITARIGEPLVLKCKGAPKKPPQRLEWKLNTGRTEAWKVLSPQGGGPWDSVARVLPNGSLFLPAVGIQDEGIFRCQAMNRNGKETKSNYRVRVYQIPGKPEIVDSASELTAGVPNKVGTCVSEGSYPAGTLSWHLDGKPLVPNEKGVSVKEQTRRHPETGLFTLQSELMVTPAPGGDPRPTFSCSFSPGLPRHRALRTAPIQPRVWEPVPLEEVQLVVEPEGGAVAPPSVFLFPPKPKDTLMISRTPEVTCVVVDVSHEDPEVKFNWYVDGVEVHNAKTKPREEQYNSTYRVVSVLTVLHQDWLNGKEYKCKVSNKALPAPIEKTISKAKGQPREPQVYTLPPSRDELTKNQVSLTCLVKGFYPSDIAVEWESNGQPENNYKTTPPVLDSDGPFFLYSKLTVDKSRWQQGNVFSCSVMHEALHNHYTQKSLSLSPGK
[1]
  Relative binding compared to control: 170%
S100b
  Relative binding compared to control: 173%

B2: S1F1: sRAGE-Ig fraction from untreated cells, 3-glycan occupancy (protein)
chain: QNITARIGEPLVLKCKGAPKKPPQRLEWKLNTGRTEAWKVLSPQGGGPWDSVARVLPNGSLFLPAVGIQDEGIFRCQAMNRNGKETKSNYRVRVYQIPGKPEIVDSASELTAGVPNKVGTCVSEGSYPAGTLSWHLDGKPLVPNEKGVSVKEQTRRHPETGLFTLQSELMVTPAPGGDPRPTFSCSFSPGLPRHRALRTAPIQPRVWEPVPLEEVQLVVEPEGGAVAPPSVFLFPPKPKDTLMISRTPEVTCVVVDVSHEDPEVKFNWYVDGVEVHNAKTKPREEQYNSTYRVVSVLTVLHQDWLNGKEYKCKVSNKALPAPIEKTISKAKGQPREPQVYTLPPSRDELTKNQVSLTCLVKGFYPSDIAVEWESNGQPENNYKTTPPVLDSDGPFFLYSKLTVDKSRWQQGNVFSCSVMHEALHNHYTQKSLSLSPGK
[1]
  Relative binding compared to control: 102%
S100b
  Relative binding compared to control: 46%

B3: S2F3: sRAGE-Ig fraction from TMYCN treated cells, 0-glycan occupancy (aglycosylated variant) (protein)
chain: QNITARIGEPLVLKCKGAPKKPPQRLEWKLNTGRTEAWKVLSPQGGGPWDSVARVLPNGSLFLPAVGIQDEGIFRCQAMNRNGKETKSNYRVRVYQIPGKPEIVDSASELTAGVPNKVGTCVSEGSYPAGTLSWHLDGKPLVPNEKGVSVKEQTRRHPETGLFTLQSELMVTPAPGGDPRPTFSCSFSPGLPRHRALRTAPIQPRVWEPVPLEEVQLVVEPEGGAVAPPSVFLFPPKPKDTLMISRTPEVTCVVVDVSHEDPEVKFNWYVDGVEVHNAKTKPREEQYNSTYRVVSVLTVLHQDWLNGKEYKCKVSNKALPAPIEKTISKAKGQPREPQVYTLPPSRDELTKNQVSLTCLVKGFYPSDIAVEWESNGQPENNYKTTPPVLDSDGPFFLYSKLTVDKSRWQQGNVFSCSVMHEALHNHYTQKSLSLSPGK
modifications: non-natural residues
[1]; versus S2F1
  fold increase in binding to Abeta compared to fully occupied 3-glycan version: six-fold
[1]; [2]
  fold increase in binding to Abeta compared to S1 control: three-fold
S100b; versus S1F1
  fold increase in binding to S100b compared to fully occupied 3-glycan version: ten-fold
S100b; [2]
  fold increase in binding to S100b compared to S1 control: five-fold

B4: S2F1: sRAGE-Ig fraction from TMYCN treated cells, 3-glycan occupancy (protein)
chain: QNITARIGEPLVLKCKGAPKKPPQRLEWKLNTGRTEAWKVLSPQGGGPWDSVARVLPNGSLFLPAVGIQDEGIFRCQAMNRNGKETKSNYRVRVYQIPGKPEIVDSASELTAGVPNKVGTCVSEGSYPAGTLSWHLDGKPLVPNEKGVSVKEQTRRHPETGLFTLQSELMVTPAPGGDPRPTFSCSFSPGLPRHRALRTAPIQPRVWEPVPLEEVQLVVEPEGGAVAPPSVFLFPPKPKDTLMISRTPEVTCVVVDVSHEDPEVKFNWYVDGVEVHNAKTKPREEQYNSTYRVVSVLTVLHQDWLNGKEYKCKVSNKALPAPIEKTISKAKGQPREPQVYTLPPSRDELTKNQVSLTCLVKGFYPSDIAVEWESNGQPENNYKTTPPVLDSDGPFFLYSKLTVDKSRWQQGNVFSCSVMHEALHNHYTQKSLSLSPGK
[1]
  Relative binding compared to control: 49%
S100b
  Relative binding compared to control: 20%

B5: S2F2: sRAGE-Ig fraction from TMYCN treated cells, 2-glycan occupancy (protein)
chain: QNITARIGEPLVLKCKGAPKKPPQRLEWKLNTGRTEAWKVLSPQGGGPWDSVARVLPNGSLFLPAVGIQDEGIFRCQAMNRNGKETKSNYRVRVYQIPGKPEIVDSASELTAGVPNKVGTCVSEGSYPAGTLSWHLDGKPLVPNEKGVSVKEQTRRHPETGLFTLQSELMVTPAPGGDPRPTFSCSFSPGLPRHRALRTAPIQPRVWEPVPLEEVQLVVEPEGGAVAPPSVFLFPPKPKDTLMISRTPEVTCVVVDVSHEDPEVKFNWYVDGVEVHNAKTKPREEQYNSTYRVVSVLTVLHQDWLNGKEYKCKVSNKALPAPIEKTISKAKGQPREPQVYTLPPSRDELTKNQVSLTCLVKGFYPSDIAVEWESNGQPENNYKTTPPVLDSDGPFFLYSKLTVDKSRWQQGNVFSCSVMHEALHNHYTQKSLSLSPGK
[1]
  Relative binding compared to control: 238%
S100b
  Relative binding compared to control: 180%
